Experimental data published in patent publication US6455049B1, “Biologically active and particularly peptide molecules having a potentiating effect on growth hormone biological activity” (priority 1996, dated 2002).

System: IGF-1
Test: Plasma IGF-1 level in hypophysectomised female Wistar rats (radioimmunoassay)
Format: in vivo
Details: dose of 100 μg/rat
Protocol: In vivo experiments performed in the context of the present invention were carried out on 19 batches of hypophysectomised female rats of the Wistar strain, each batch comprising 5 rats. These animals were hypophysectomized when 4 weeks old and then kept under observation for one week. During an additional week of observation, the animals were weighed and those having gained more than 5 grams […] were discarded. In fact, it was assumed that the hypophysectomy of these animals was incomplete. They are thus not suitable for use in the framework of the present experiments.
Each animal selected receives a T4 thyroid hormone and cortisone replacement treatment. These hormones are administered subcutaneously each day at 50 μg/100 g body weight in the case of cortisone and 1 μg/100 g body weight in the case of T4. Usually a slight weight gain is observed following the injection of these hormones. This hormone supplementation treatment is administered for one week during which the animals continue to be weighed daily. These animals are from then on suitable for use in a comparative evaluation of the somatogenic activity of bGH incubated with or without different peptide constructions having the sequence 104-113 or the sequence 35-53 in the case of the GH peptide described in EP 284406. […]

B1: bovine growth hormone (protein)
chain: AFPAMSLSGLFANAVLRAQHLHQLAADTFKEFERTYIPEGQRYSIQNTQVAFCFSETIPAPTGKNEAQQKSDLELLRISLLLIQSWLGPLQFLSRVFTNSLVFGTSDRVYEKLKDLEEGILALMRELEDGTPRAGQILKQTYDKFDTNMRSDDALLKNYGLLSCFRKDLHKTETYLRVMKCRRFGEASCAF
IGF level relative to baseline levels in control hypophysectomized animals: eight times higher than the baseline levels
mean IGF levels (hypophysectomized rats): 60 ng/mL
